These results are taken from US20230391828.

The series has as its system T1, G3-6, Ac-cyclo(4,11)-EWWZIKEIQRXRRA-NH2.
T1 sequence: EWWXIKEIQRXRRA

For “recombinant human APC/C (Strep-tagged APC4), expressed in SF9 cells”, the “in vitro APC/C ubiquitination assay with different E2 enzymes (UBE2C, UBE2D, UBE2S), Ub-cyclin B1 substrate, 100 µM, 40 min” value is recorded as “The lead molecule G3-6 (SEQ. ID. NO. 33) inhibits APC/C in vitro independently on employed E2 enzymes”.
